Positions count from the first letter of the chain named. Numbers in names are those of the source.
B1: LbNOX: water-forming NADH oxidase endogenous to Lactobacillus brevis; tested with C-terminal FLAG tag (protein, listed as Lactobacillus brevis)
chain: KVTVVGCTHAGTFAIKQILAEHPDAEVTVYERNDVISFLSCGIALYLGGKVADPQGLFYSSPEELQKLGANVQMNHNVLAIDPDQKTVTVEDLTNHAQTTESYDKLVMTSGSWPIVPKIPGIDSDRVKLCKNWAHAQALIEDAKEAKRITVIGAGYIGAELAEAYSTTGHDVTLIDAMARVMPKYFDADFTDVIEQDYRDHGVQLALGETVESFTDSATGLTIKTDKNSYETDLAILCIGFRPNTDLLKGKVDMAPNGAIITDDYMRSSNPDIFAAGDSAAVHYNPTHQNAYIPLATNAVRQGILVGKNLVKPTVKYMGTQSSSGLALYDRTIVSTGLTLAAAKQQGLNAEQVIVEDNYRPEFMPSTEPVLMSLVFDPDTHRILGGALMSKYDVSQSANTLSVCIQNENTIDDLAMVDMLFQPNFDRPFNYLNILAQAAQAKVAQSVNA
modifications: C-terminal FLAG tag
B2: TPNOX: NADPH-specific quintuple mutant (G159A/D177A/A178R/M179S/P184R) of LbNOX (protein)
chain: B1 chain with G158A, D176A, A177R, M178S, P183R

What was measured:
[1] = Enzymatic assay of NAD(P)H oxidase activity, NADH as substrate (absorbance at 340); type: biochemical
Method: FIGS. 1A-1E illustrate the biochemical properties of LbNOX with a C-terminal FLAG tag and a cleavable N-terminal hexahistidine (Hisx6) tag produced by overexpression in E. coli. Purified LbNOX-FLAG has a yellow color and a UV-visible absorption spectrum (λmax=371 and 444 nm) similar to other FAD-containing enzymes, which can be reduced upon the addition of sodium dithionite (FIG. 1B). (FIG. 1A) Reaction catalyzed by LbNOX. (FIG. 1B) UV-visible spectrum of purified LbNOX. Protein (82.8 μM FAD active sites) in 50 mM NaPi pH 7.5, 150 mM NaCl after purification in oxidized form (solid line) and after addition of excess of sodium dithionite, reduced form (dashed line). Inset: SDS-PAGE of purified LbNOX. (FIG. 1C) Simultaneous measurement of NADH and oxygen consumption by LbNOX as assayed in 50 mM NaPi pH 7.5, 150 mM NaCl at 28° C. NADH (500 μM) and LbNOX (1.8 μg) were added as indicated by arrows. (FIG. 1D) Michaelis-Menten analysis of the NAD(P)H oxidase activity of recombinant LbNOX. Inset: values for Vmax and KM for NADH represent the mean±S.D. (error bars) from four independent experiments. (FIG. 1E) The crystal structure of LbNOX. The FAD in stick representation and bound oxygen in red spheres. Inset: The substrate selectivity loops of LbNOX (containing Asp177, Ala178, and Pro184) and glutathione reductase—NADPH complex (containing Arg198 and Arg204) (PDB ID 1GET). Backbone atoms of NAD(P)H binding domains of each protein (residues 147-247 of LbNOX and 167-268 of glutathione reductase) were superimposed using the least square algorithm of COOT. Note that Arg198 and Arg204 of glutathione reductase, which tightly bind the phosphate moiety of NADPH, are replaced in LbNOX with Ala178 and Pro184, respectively. Negatively charged side chain of Asp177 in LbNOX replaces the neutral Val197 of glutathione reductase.
Recombinant LbNOX activity was monitored by following the decrease of the absorbance of NAD(P)H at […] using CARY® 100 spectrophotometer (Agilent, CA). A typical reaction mixture contained 2 μM FAD in 0.5 ml of the assay buffer (50 mM Na2HPO4, pH 7.5, 150 mM NaCl) and was incubated for 4 min at 37° C. before NAD(P)H (2-600 μM) and enzyme (0.08-6.8 μg) were added. Extinction coefficient (ε340=6.2 mM^−1 cm^−1) was used to calculate NAD(P)H oxidase activity. Simultaneous monitoring of oxygen consumption and NADH fluorescence was performed using a custom-built fluorimeter. In our setup the REDEYE™ oxygen patch (OceanOptics) was installed in a cuvette and the optical probe was connected to a fluorimeter. Oxygen causes quenching of the REDEYE™ patch fluorescence which allows to monitor the partial pressure of oxygen. In our experiments 0.5 ml of the assay buffer was preincubated at 28° C. before NADH (40-1500 μM) and LbNOX (0.1-2 μg) were added.

HeLa cells = assay: Oxygen consumption rate (OCR), XF24 extracellular flux analyzer; type: cell-based, human; details: for increase in oxygen consumption: resistance to antimycin: 1 μM antimycin (complex III inhibitor); for increase in oxygen consumption of HeLa cells: doxycycline-inducible expression
Method: Oxygen consumption rates (OCR) of HeLa cells expressing 5 bacterial NOXes (untargeted and targeted to mitochondria) and Luciferase under the control of doxycycline (DOX) inducible promoter (TRE3G) were measured with the XF24 Extracellular Flux Analyzer (Seahorse Bioscience, manufactured in 2008). Cells were seeded at 30-40×10^3 cells per well in XF24 24-well cell culture microplates in 200 μl of DMEM (DMEM (US Biological, […]), 3.7 g/L NaHCO3 and 10% dialyzed FBS (Life Technologies, 26400-044) and were incubated at 37° C. in 5% CO2 incubator. Media was replaced the next day with 1 ml per well and doxycycline (final concentration -300 ng/ml, prepared in water) or water were added to the corresponding wells to induce protein expression. Twenty four hour later, media was replaced with 950 μL of the assay medium (no pyruvate DMEM (US Biological, […]), 15.9 mg/L phenol red, 10% dialyzed FBS (Life Technologies, 26400-044) and 25 mM HEPES-KOH, pH 7.4) and plates were introduced into the […] Extracellular Flux Analyzer for experimental measurements. Each measurement was performed over 4 min after a 2-min mix and a 2-min wait period. Basal measurements were collected 8 times and 4 measurements were collected after injection of oligomycin (final concentration 1 μM), followed by 4 measurements after addition of antimycin A (final concentration 1 μM) from the XF24 ports in 50 μL of the assay medium. Cells were seeded at 30-40×10^3 per well in XF24 24-well cell culture microplates in 200 μl of normal growth media (DMEM (US Biological, […]), 3.7 g/L NaHCO3 and 10% dialyzed FBS (Life Technologies, 26400-044)) and were incubated at 37° C. in 5% CO2 incubator. For all experiments the next day media was renewed with 1 ml per well and doxycycline (final concentration -300 ng/ml) or water were added. Twenty four hours later, media was changed to no pyruvate media (no pyruvate DMEM (US Biological, […]), 15.9 mg/L phenol red, 3.7 g/L NaHCO3 and 10% dialyzed FBS (Life Technologies, 26400-044)). Two hours later, media was replaced with 950 μL of the assay medium (no pyruvate DMEM (US Biological, […]), 15.9 mg/L phenol red, 10% dialyzed FBS (Invitrogen, 26400-044) and 25 mM HEPES-KOH, pH 7.4) and OCR was measured. Each measurement was performed over 4 min after a 2-min mix and a 2-min wait period. Basal measurements were collected 8 times and 4 measurements were collected after injection of each drug: antimycin A (final concentration 1 μM) or piericidin (final concentration 1 μM). Three measurements before and after addition of the drug were averaged and normalized by the cell number.

| Molecule | substrate selectivity NADH vs NADPH [1] | specific activity ([1]; after enterokinase cleavage of N-terminal Hisx6 tag) [µmol/min/mg] | specific activity ([1]; fully reconstituted LbNOX (holoLbNOX), peak from Source 15Q, N-terminal Hisx6 tag present) [µmol/min/mg] | Km ([1]; recombinant enzyme, read-out: apparent KM for NADH) [µM] | increase in oxygen consumption: resistance to antimycin (HeLa cells) | increase in oxygen consumption: resistance to piericidin (HeLa cells; 1 μM piericidin (complex I inhibitor)) | increase in oxygen consumption of HeLa cells (HeLa cells) [fold] | kcat with NADH [1] [s⁻¹] |
| --- | --- | --- | --- | --- | --- | --- | --- | --- |
| B1 | selectively oxidizes NADH over NADPH | ~750 | ~550 | 69 ± 3 | resistant | resistant | 1.6 |  |
| B2 |  |  |  |  | resistant |  | 1.7 | 3.2 ± 0.2 |
